Experimental data as given in paper PMC4028238.
pIC50: −log10 of the molar value.

These sequences were tested on Influenza A virus hemagglutinin (whole virus as assayed) (Influenza A virus H3N2 A/Texas/1977 (A/Texas/1/77)) (assay: competition ELISA). Details: 5' PEG200, PBS, room temperature, […] (0.5-500 nM) […] (5 nM).

| Sequence | relative binding affinity (IC50 ratio vs BV02) (IC50(BV02)/IC50) |
| --- | --- |
| ATTAACCCTCACTAAAGGGCTGAGTCTCAAAACCGCAATACACTGGTTGTATGGTCGAATAAGTTAA [BV32] | 1.33 |

Same assay, conditions: * marks (phosphorothioate) after nt 1,2,3, 3' inverted dT, PBS, room temperature, […] (0.5-500 nM) […] (5 nM)

| Sequence | relative binding affinity (IC50 ratio vs BV02) (IC50(BV02)/IC50) |
| --- | --- |
| ATTAACCCTCACTAAAGGGCTGAGTCTCAAAACCGCAATACACTGGTTGTATGGTCGAATAAGTTAA [BV29] | 6.7 |

Same assay, conditions: * marks (phosphorothioate) after nt 1,2,3 and the last 3 linkages, PBS, room temperature, […] (0.5-500 nM) […] (5 nM)

| Sequence | relative binding affinity (IC50 ratio vs BV02) (IC50(BV02)/IC50) |
| --- | --- |
| ATTAACCCTCACTAAAGGGCTGAGTCTCAAAACCGCAATACACTGGTTGTATGGTCGAATAAGTTAA [BV28] | 1.36 |

Same assay, conditions: * marks (phosphorothioate): A*T*T*AACC*CTCACTAAAGGG*CTGAGTC*TCAAAACCG*CAATACACTG*GTTGTATG*GTCGAATAAGT*T*A*A, PBS, room temperature, […] (0.5-500 nM) […] (5 nM)

| Sequence | relative binding affinity (IC50 ratio vs BV02) (IC50(BV02)/IC50) |
| --- | --- |
| ATTAACCCTCACTAAAGGGCTGAGTCTCAAAACCGCAATACACTGGTTGTATGGTCGAATAAGTTAA [BV31] | 7.51 |

Same assay, conditions: PBS, room temperature, […] (0.5-500 nM) […] (5 nM)

| Sequence | relative binding affinity (IC50 ratio vs BV02) (IC50(BV02)/IC50) | pIC50 |
| --- | --- | --- |
| AAATAAGCCTGACTTAACGGGTGACTCTCAAAACCGCAATACACTCAGCCCTTTAGTGAGGGTTAATT [BV19k] | 0.932 |  |
| AACCCTCACTCCGACTCACTCAAAACCGCAATACACTCAGCCAGTGAGGGTT [BV19f] | 0.131 |  |
| AACCCTCACTCTCAAAACCGCAATACAGTGAGGGTT [BV19h] | 0.016 |  |
| AACGCTCACTAAACCCCCCCCCACCCCCCCCCACCCCCCCCCAAAAGTGAGCGTT [BV45a] | 12.6 |  |
| AACGCTCACTAACCCCCCCCCCACCCCCCCCCCACCCCCCCCCCAAGTGAGCGTT [BV45] | 14.2 |  |
| AACGCTCACTACCCCCCCCCCAACCCCCCCCCCAACCCCCCCCCCAGTGAGCGTT [BV45b] | 15.1 |  |
| AACGCTCACTCCCAAGAAGAAGAACCCCCCCCCCCCCCCCAGTGAGCGTT [BV43b] | 8.01 |  |
| AACGCTCACTCCCCCAAGAACCCCCCCCCCATGCACCCCCCCCCCAGTGAGCGTT [BV45e] | 11.4 |  |
| AACGCTCACTCCCCCAAGAACCCCCCCCCCCCTCCCCCCCCCCCCAGTGAGCGTT [BV45c] | 11.7 |  |
| AACGCTCACTCCCCCAAGAACCCCCCCCCCCTGACCCCCCCCCCCAGTGAGCGTT [BV45d] | 10.7 |  |
| AACGCTCACTCCCCCACCCCCCCACCCCCCCACCCCCCCACCCCCAGTGAGCGTT [BV35m] | 6.54 |  |
| AACGCTCACTCCCCCCCCACCCCCCCCACCCCCCCCACCCCCCCCAGTGAGCGTT [BV35n] | 7.23 |  |
| AACGCTCACTCCCCCCCCCCCACCCCCCCCCCCACCCCCCCCCCCAGTGAGCGTT [BV35o] | 9.92 |  |
| AACGCTCACTCCCCCCCCCCCCCCAAGAAGAACCCCCCCCCCCCCAGTGAGCGTT [BV42b] | 14.9 |  |
| AACGCTCACTCCCCCCCCCCCCCCCAAGAACCCCCCCCCCCCCCCAGTGAGCGTT [BV35s] | 7.45 |  |
| AACGCTCACTCCCCCCCCCCCCCCCCCACCCCCCCCCCCCCCCCCAGTGAGCGTT [BV35p] | 9.88 |  |
| AACGCTCACTCCCCCCCCCCCCCCCCCCCAGTGAGCGTT [BV35g] | 0.639 |  |
| AATTAACCCTCACTAAAGCCGACTCACTCAAAACCGCAATACACTCAGCCCTTTAGTGAGGGTTAATT [BV19b] | 1.26 |  |
| AATTAACCCTCACTAAAGGGCTCTCACTCAAAACCGCAATACACTCAGCCCTTTAGTGAGGGTTAATT [BV19a] | 0.574 |  |
| AATTAACCCTCACTAAAGGGCTGAGTCTCAAAACCGCAATACACTCAGCCCTTTAGTGAGGGTTAATT [BV19] | 1.34 |  |

| Sequence | relative binding affinity (IC50 ratio vs BV02) (IC50(BV02)/IC50) | pIC50 |
| --- | --- | --- |
| AATTAACCCTCACTAAAGGGCTGAGTCTCAAAACCGCAATACACTGGTTGTACAACCAGTGTATTGCG [BV14] | 1.33 |  |
| AATTAACCCTCACTAAAGGGCTGAGTCTCAAAACCGCAATACACTGGTTGTATGGTCGAATAAGTTAA [BV02] | 1 | 7.26 |
| AATTAACCCTCACTAAAGGGCTGAGTCTCAAAACCGCAATACACTGGTTGTATGTTAATTGGGAGTGA [BV18] | 7.26 |  |
| AATTAACCCTCACTAAAGGGCTGAGTCTCAAAACGTTTTGAGACTCAGCCCTTTAGTGAGGGTTAATT [BV11] | 0.124 |  |
| AATTAACCCTCACTAAAGGGCTGATGCGGAATAAGTTAAAACCGCAGGTATACACTGGTTGTATCGAA [BV02a] | 0.946 |  |
| AATTAACCCTCCTAAAGGGTCTGAGTCTCAAAACCGCAATACACTCAGCCCTTTAGTGAGGGTTAATT [BV19l] | 0.004 |  |
| AATTAACCCTGACTAAAGGGGTGAGTCTCAAAACCGCAATACACTCAGCCCTTTAGTGAGGGTTAATT [BV19i] | 0.071 |  |
| AATTAACGCTCACTAAAGCCCCACCCACCCACCCACCCACCCACCCACCCCTTTAGTGAGCGTTAATT [BV36b] | 0.611 |  |
| AATTAAGCCTGACTTAAGGGGTGAGTCTCAAAACCGCAATACACTCAGCCCTTTAGTGAGGGTTAATT [BV19j] | 0.071 |  |
| AGATAAATGTCCGGGTTCGCTTCACTGATCAAACATAGACAGGTATAATTACTGCCTGAAGAAAATCC [S2] | 1 |  |
| CACCACCACCACCACCACCACCACCACCAC [BV24b] | 0.05 |  |
| CCCCCCCCCCCCCCCCCGCGCTGAGTCCCCCCCCCCCCCCCCCCCACTCAGCGCG [BV35c] | 1.16 |  |
| CCCCCCCCCGCGCTGAGTCCCCCCCCCCCCCCCCCCCACTCAGCGCGCCCCCCCC [BV35b] | 0.938 |  |
| CTCACTAAAGCGCTGAGTCCCCCCCCCCCCCCCCCCCACTCAGCGCTTTAGTGAG [BV35] | 1.01 |  |
| CTCACTAAAGGGCTGAGTCAAACCGCAATACACTGGTTGTATGGTCGAATAAGTT [BV27] | 0.116 |  |
| CTCACTAAAGGGCTGAGTCAAACCGCAATACACTGGTTGTATGGTCGGTTAAGTT [BV27c] | 0.771 |  |
| CTCACTAAAGGGCTGAGTCTCAAAACCGCAATACACTCAGCCCTTTAGTGAG [BV19g] | 0.132 |  |
| CTCCTCCTCCTCCTCCTCCTCCTCCTCCTC [BV24a] | 0.08 |  |
| GAAATAACCTCTGATAAAAAATTTCTCCATAGCGAAGTAAGTCCATAAGGAATGCCGATTCGGCTTGC [S1] | 1.1 |  |
| GCTGAGTCTCAAAACCGCAATACACTGGTT [BV26] | 0.792 |  |

| Sequence | relative binding affinity (IC50 ratio vs BV02) (IC50(BV02)/IC50) | pIC50 |
| --- | --- | --- |
| GGCTCACTAAAGGGCTGAGTCTCAAAACCGCAATACACTCAGCCCTTTAGTGAGGGTTAATTTTAAAGG [BV19c] | 0.086 |  |
| GGCTGAGTCAAACCGCCTAACACTGGTACAATGGCGGTTAAGTT [BV27m] | 0.012 |  |
| GGTAGTTATAGTATATGGAAGGGGCCCCCCCCCCCCCCCCGTGTCGTATGG [C7C] | 15.5 |  |
| GGTAGTTATAGTATATGGAAGGGGGTGTCGTATGG [C7-35M] | 0.549 |  |
| GTAAATACCTCTGAAATAATATCTCCATGACAGAGTAAGTCCATGAGAACTGACGATGCAAGTCTGTC [S3] | 0.7 |  |
| GTCACTAAAGGGCTGAGTCAAACCGCAATACACTGGTTGTATGGTCGGTTAAGTT [BV27f] | 0.75 |  |
| GTCACTAAAGGGCTGAGTCAAACCGCCATACACTGGTTGTATGGCGGTTAAGTT [BV27j] | 0.089 |  |
| GTTTTGAGACTCAGCCCGGGCTGAGTCTCAAAACCGCAATACACTGGTTGTACAACCAGTGTATTGCG [BV13] | 0.084 |  |
| TCATTCTCAGTAAAGGGCTGAGAATTCAAACCGCAATACACTGGTAAAAAGTGCGGTTAAG [BV27p] | 0.133 |  |
| TCATTCTCAGTAAAGGGCTGAGTCAAACCGCAATACACTGGTAAAAAGTGCGGTTAGCGAG [BV27o] | 0.116 |  |
| TCCTCAGCAAAATAGCGGGGCTGAGTCAAACCGCAATACACTGGTAAAAAGTGCGGTTAAG [BV37b] | 1 |  |
| TCCTCAGCAAAATAGCGGGGCTGAGTCTCAAACCGCAATACACTGGTAAAAAGTGCGGTTA [BV37c] | 7.56 |  |
| TCCTCAGTAAAATAGCGGGGCTGAGTCAAACCGCAATACACTGGTAAAAAGTGCGGTTAAG [BV27n] | 0.151 |  |
| TCCTCAGTAAAGGGCTGAGAAACCGCAATACACTGGTAAAAAGTGCGGTTAAGTT [BV27g] | 0.093 |  |
| TCCTCAGTAAAGGGCTGAGTCAAAACCGCAATACACTGGTAAAAAGTGCGGTTAG [BV27i] | 0.065 |  |
| TCCTCAGTAAAGGGCTGAGTCAAACCGCAATACACTGGTAAAAAGTGCGGTTAAG [BV27h] | 0.092 |  |
| TCTCAGCCCCCGCTGAGTCAAAGCGCACCCCCCCCCCCCCCCCCCCTGCGCTTAA [BV37f] | 0.495 |  |
| TCTCAGCCCCCGCTGAGTCAAAGCGCACCCCCCCCCCCCCCCCTGCGCTTAA [BV37e] | 0.995 |  |
| TTCCTCAGCAAAATAGCGGGGCTGAGCAACCGCAATACACTGGTAAAAAGTGCGGTTAAGA [BV37a] | 0.874 |  |
